Assay: yeast display, Sf9 membrane polyspecificity reagent, FACS + sequencing; frameworks hold sequencing errors
Summary of the method: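 Using colony PCR, genes from sorted yeast display clones were amplified, then sequenced on MiSeq at 2 × 250 and filtered by CDR length. The clones had been stained with 10% biotinylated, detergent-solubilized Sf9 membrane reagent for 1 hour at 4 °C and sorted by FACS into low and high (top ~1%) gates on anti-HA and streptavidin fluorescence. Polyreactivity labels come from the gate of origin.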

| Sequence | polyreactivity (PSR sort gate) |
| --- | --- |
| QVQLVESGGGLVQAGGSLRLSCAASGSTFYVYVMGGYRQAPGKERELVAAITSSGDITYYADSVKGRFTISRYNAKITVYLQMNSLIPEETAVYYCAASPFRRRYNGENDYWGQGTQVTGSS | high polyreactivity |
| QVQLVESGGGLVQAGGSLRLSCAASGSTFYWYAMGWYRPAPGKERELVAAISSGADTSYADSVKGRFTISRDNAKNTVYLQMNSLKPEDTAVYYCARRYRARGSMYYWGQGTKVTVSS | high polyreactivity |
| QVQLVESGGGLVQAGGSLRLSCAASGSTFYWYTMGWYRQAPGKEKELVARISSSGSTNYADSVKGRFTISRDNAKNTVYLQMNSLKPEDTAVYYCNKDWIYRGYDYWGQGTQVTVSS | high polyreactivity |
| QVQLVESGGGLVQAGGSLRLSCAASGSTFYYMGWSRQAPGKERELVAAITQSGGSTYYADSVKGRFTISRDNAKNTVYLQMNSLKPEDTAVYYCAARYASPRYKSKMDYWGQGTQVTVSS | high polyreactivity |
| QVQLVESGGGLVQAGGSLRLSCAASGSTFYYNAMGWYRQAPGKERELVAAITFTGGSTYADSVKGRFTISRDNAKNTVYLQLNSLKPEDTAVYYCAATIQGHDYLGTGYDYWGQGTQVTVSS | low polyreactivity |
| QVQLVESGGGLVQAGGSLRLSCAASGSTFYYNAMGWYRTAPGKERELVAVIDGSGGFTYYADSVKGRFTISRDNAKNTVYLQMNSLKPEDTAVYYCNADLVYNTFIFSGGDEYDYWGQGTQVTVSS | high polyreactivity |
| QVQLVESGGGLVQAGGSLRLSCAASGSTFYYNTMGWYRQAPGKERELVAAISSGGSTNYADSVKGRFTISRDNAKNTVYLQMNSLKPEDTAVYYCAKRRGGALYAYRYYYWGQGTQVTVSS | high polyreactivity |
| QVQLVESGGGLVQAGGSLRLSCAASGSTFYYNTMGWYRQAPGKERELVAAISWRGGSTYYADSVKGRFTISRDNAKNTVYLLMNSLKPVDTAVYYCAAGWYPRSVRPFESFVGLDYWGQGTQVTVSS | high polyreactivity |
| QVQLVESGGGLVQAGGSLRLSCAASGSTFYYYAMGCYRQAPGKERELVASITTGGGSTYYADSVKGRFTISRDNAKNTVYLQLNSLKPEDTAVYYCGAALAYYYWWYDYWGQCTQVTVSS | low polyreactivity |
| QVQLVESGGGLVQAGGSLRLSCAASGSTFYYYAMGWYRPAPGKERELVAAISSSGGITYYADSVKGRFTISRDNAKNTVYLQMNSLKPEDTAVYYCAADVIVFYYGPNYWGDIGYGYWGQGTQVTVSS | low polyreactivity |
| QVQLVESGGGLVQAGGSLRLSCAASGSTFYYYAMGWYRQAPGKDRELVAAISKRDGRTYYADSVKGRFTISRDNAKNTVYLQMNSLKPEDTAVYYCNAYSYGHYYWGQGTQVTVSS | high polyreactivity |
| QVQLVESGGGLVQAGGSLRLSCAASGSTFYYYAMGWYRQAPGKEMELVAAINWSGASTYYADSVKGRFTISRDNAKNTVYLQMNSLIPEDTAVYYCAAGYAGGYGVTFDYCGQGTQVTVSS | low polyreactivity |
| QVQLVESGGGLVQAGGSLRLSCAASGSTFYYYAMGWYRQAPGKEREFVAAITFRGGSTYYADSVKGRFTISRDNAKNTVYLQMNSLKPEDTAVYYCAAKPPFRNYVRYDYWGQGTQVTVSS | high polyreactivity |
| QVQLVESGGGLVQAGGSLRLSCAASGSTFYYYAMGWYRQAPGKEREFVASISSRGTSTYYADSVKGRFTISRDHAKNTVYLQMNSMKPEDTAVYYCAARGWGPTRAYDYWGQGTQVTVSS | high polyreactivity |
| QVQLVESGGGLVQAGGSLRLSCAASGSTFYYYAMGWYRQAPGKERELFATINKNVGITYYADSVKGRFTISRDNAKNTVYLQRNSMKTEVTAVDYCAAHGRINPDGPRTVFFASEEDYWGQGTQVTVSS | low polyreactivity |
| QVQLVESGGGLVQAGGSLRLSCAASGSTFYYYAMGWYRQAPGKERELVAAINSGGRTNYADSVKGRFTISRDNAKNTVYLQMNSLKPEDTAVYYCAKRTYPYGTYRSVWGYDYWGQGTQVTVSS | low polyreactivity |
| QVQLVESGGGLVQAGGSLRLSCAASGSTFYYYAMGWYRQAPGKERELVAAISVRAGITYYADSVKGRFTISRDNAKNTVYLQMNSLKPEDTAVYYCAKDHWTTSSDEGDYWGQGTQVTVSS | low polyreactivity |
| QVQLVESGGGLVQAGGSLRLSCAASGSTFYYYAMGWYRQAPGKERELVARITWIGGSTYYADSVKGRFTISRDNAKNTVYLQMNSLKPEDTAVYYCAAGWYRRIYGGWGYDYWGQGTQVTVSS | low polyreactivity |
| QVQLVESGGGLVQAGGSLRLSCAASGSTFYYYAMGWYRQAPGKERELVAVISWGGGSTYYADSVKGRFTISRDNAKNTVYLQMNSLKPEDTAVYYCAAVYDEYQTTHEYDYWGQGTQVTVSS | low polyreactivity |
| QVQLVESGGGLVQAGGSLRLSCAASGSTFYYYAMGWYSPAPGKERELVAAISRGGGSTNYADSVKGRFTISRDNAKNTVYLQMNSLKPEDTAVYYCATDYKYYGRPYNYWGQGTQVTVSS | high polyreactivity |
| QVQLVESGGGLVQAGGSLRLSCAASGSTFYYYTMGWYRQAPGKERELVAISWDGDSTYYADSVKGRFTISRDNAKNTVYLQMNSLKPEDTAVYYCAAADYYLPDDVSDYVDANFDYWGQGTQVTVSS | low polyreactivity |
| QVQLVESGGGLVQAGGSLRLSCAASGSTGFYGMGWYRQAPGKERELVAAITFRSGSTYYADSVKGRFTISRDNAKNTVYLQMNSLKPEDTAVYYCAAYSFNNGHRYDYWGQGTQVTVSS | high polyreactivity |

| Sequence | polyreactivity (PSR sort gate) |
| --- | --- |
| QVQLVESGGGLVQAGGSLRLSCAASGSTIDGYAMGWYRQAPRKERELVAAITFDGSSTYYADSVKGRFTISRDNAKNTVYLQMNSLKPEVTAVYYCAAASSYWVLWDDYWGQGTQVTVSS | low polyreactivity |
| QVQLVESGGGLVQAGGSLRLSCAASGSTIDTYAMGWYRQAPGKERELVAGISWSGGSTFYADSVKGRFTISRDNAKNTVYLQMNSLKPEDTAVYYCAKQLWVGVKYDYWGQGTQVTVSS | low polyreactivity |
| QVQLVESGGGLVQAGGSLRLSCAASGSTIEANAMGWYRQAPGKERELVAVNTWTGGSTYYADSVKGRFTISRDNAKNTVYLQMNSLKPEDTAVYYCAADGVVPGRFFWPAHEYDYWGQGTQVTVSS | low polyreactivity |
| QVQLVESGGGLVQAGGSLRLSCAASGSTIFENVMGWYRQAPGKEREFVAAINTSGGSTYYADSVKGRFTISRDNAKYTVYLQMNSLKPEDTAVYYCARDSYWEMDYWGQGTQVNVSS | low polyreactivity |
| QVQLVESGGGLVQAGGSLRLSCAASGSTIFFNAMGWYRQAPGKERELVAGISSSGGSTHYADSVKGRFTISRDNAKNTVYLQMNSLKPEDTAVYYCNAQQYLPSEGDYWGQGTQVTVSS | low polyreactivity |
| QVQLVESGGGLVQAGGSLRLSCAASGSTIFLYDMGWYRQAPGKESELVAAITISGGSTYYADSVKGRFTISRDNAKNTVDLQMNSLKPEDTAVYYCAADRQWISLFGYPDGYDYWGQGTQVTVSS | high polyreactivity |
| QVQLVESGGGLVQAGGSLRLSCAASGSTIGFYAMGWYRQAPGKERELVAANSWTGGGTYYADSVKGRFTISRDNAKITVYLQMNSLKPEDTAVYYCARLYYFNGDFWGQGTQVTVSS | high polyreactivity |
| QVQLVESGGGLVQAGGSLRLSCAASGSTIGKNVMGWYRQAPGKEREVVAAISARGGRSYYADSVKGRFTISRDIAKNTVYLQMNSLKPEDTAVYYCNTERSYTGTGRYRSSTAYGYWGQGTQVTVSS | high polyreactivity |
| QVQLVESGGGLVQAGGSLRLSCAASGSTIISYAMGWYRQAPGKERELVAAISSGGGRTSYADSVKGRFTISRDNAKNTVYLQMNSLKPEDTAVYYCNTKQLPYAEGYWGQGTQVTVSS | low polyreactivity |
| QVQLVESGGGLVQAGGSLRLSCAASGSTIKSNVLGWYRQAPGKERELVAAISSGDSTYYADSVKGRFTISRDNGKNTVYFQLNSLKPVDTAVFYCAARLGLQLVDTPDNDYWGQGTEVTVSS | low polyreactivity |
| QVQLVESGGGLVQAGGSLRLSCAASGSTILHYAMGWYRQAPGKEREFTYYADSVKGRFTISRDNAKNTVCLQMNSLTPEDTAVYYCNADPAVSGGSIATDEYDYWVQGTQVTVSS | low polyreactivity |
| QVQLVESGGGLVQAGGSLRLSCAASGSTILINAMGWYRQAPGKERELVAAISRDGSTNYADSVKGRFTISRDNAKNTVYLQMNSLKPEDTAVYYCAAVPGISVGRQPGYDYDYWGQGTQVTVSS | low polyreactivity |
| QVQLVESGGGLVQAGGSLRLSCAASGSTIPLYAMGWYRQAPGKERELVAAISRRGGRTYYADSVKGRFTISRDNAKNTVYLQMNSLKPEDTAVYYCATAQGSRVDYWGQGTQVTVSS | high polyreactivity |
| QVQLVESGGGLVQAGGSLRLSCAASGSTIPYYAMGWYRQAPGKERELVARIRWNGDSTFYADSVKGRFTISRDNAKNTVYLQMNSLKTEDSAVYYCAAYGKRLGERLNYYYWGQGTQVTVSS | high polyreactivity |
| QVQLVESGGGLVQAGGSLRLSCAASGSTIQQYAMGWYRQAPGKEREFVAAISWRGGRTYYADSVKGRFTISRDNAKNTVSLQMNSLKPEDTAVYYCAVDPSIYRLSAYYYDYWGQGTQVTVSS | low polyreactivity |
| QVQLVESGGGLVQAGGSLRLSCAASGSTIRANAMGWYRQAPGKERELVAAITKNGGSTYYADSVKGRFTISRDNAKNTVYLQMNSLKPEDTAVYYCAARRSSRRPPYYYWGQGTQVTVSS | high polyreactivity |
| QVQLVESGGGLVQAGGSLRLSCAASGSTIRDYAMGWYRQAPGKDRELVAVIDNSGGRTYYADSVKGRFTISRDNAKNTVYLQMNSLKPEDTAVYYCNTRRIAQYGYWGQGTQVTVSS | high polyreactivity |
| QVQLVESGGGLVQAGGSLRLSCAASGSTIRHYAMGWYRQAPGKERELVAAISSGARTYYADSVKGRFTISRDNAKNTVYLQMNSLKPEDTAVYYCAARYNGYAYPYYYWGQGTQVTVSS | high polyreactivity |
| QVQLVESGGGLVQAGGSLRLSCAASGSTIRVNVMGWYRQAPGKERELVAAITTSGGSTYYADSVKGRFTISRDNAKNTVYLQMNSLKPEDTAVYYCNTTYPSGWGPDMDYWGQGTQVTVSS | low polyreactivity |
| QVQLVESGGGLVQAGGSLRLSCAASGSTIRWYAMGWDRQAPGKERELVASITWSGGGTYYADSVKGRFTISRDNAKNTVYLQMNSLKPEDTAVYYCNRRTWRYETRGDDYWGQGTQVTVSS | high polyreactivity |
| QVQLVESGGGLVQAGGSLRLSCAASGSTIRYYAMGWYRQAPGKERELVAAITKSGGSTYYADSVKGRFTISRDNAKKTVYLQMNSLKPEDTAVYYCAAVRRWYYPALSEHDYWGQGTQVTVSS | low polyreactivity |

Reference: the nanobody polyreactivity screen of Harvey et al. (2022)
